Numbering of substitutions follows the chain as printed.
T1: mouse VISTA recombinant protein (Sino Biological Inc., Cat. #51550-M08H), biotinylated (mouse, UniProt Q9D659 33-191, biotinylated using EZ-LINK NHS-PEG4 biotin)
T1 chain: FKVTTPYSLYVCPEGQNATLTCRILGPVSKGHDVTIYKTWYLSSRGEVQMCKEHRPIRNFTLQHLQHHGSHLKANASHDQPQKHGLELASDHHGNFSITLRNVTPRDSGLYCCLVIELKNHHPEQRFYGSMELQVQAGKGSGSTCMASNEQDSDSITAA

B1: 9F9 humanized anti-VISTA antibody VH9/VL9 (antibody, V domains shown)
VH: QVQFVQSGAEVKKPGSSVKVSCKASGYTFSGYWMQWVKQAPGQGLEWIGAIYPGDGDTRYSQKFKGKVTLTADESTSTAYMELSSLRSEDTAVYYCARRDYGAWFAYWGQGTLVTVSS
VL: DIKVTQSPSSLSASVGDRVTITCKASQDINSYLSWYQQKPGKAPKTLIYRANRLVDGVPSRFSGSGSGQDYTFTISSLQPEDIATYYCLQYDEFPYTFGQGTKVEIK
B2: 9F9 humanized anti-VISTA antibody VH7/VL7 (antibody, V domains shown)
VH: B1 VH with S16A, S30T, G44R, E74T, T76A
VL: B1 VL with D70E, F73L, I83F
B3: 9F9-VH8/VL8 (antibody, V domains shown)
VH: B1 VH with S16A, S30T, E74K
VL: B1 VL with G41E, Q69T, Y71F, F73L, I83F
B4: 9F9 parental anti-VISTA antibody (VH0/VL0) (antibody, V domains shown)
VH: QVQFQQSGAELARPGASVKLSCKASGYTFTGYWMQWVKQRPGQGLEWIGAIYPGDGDTRYSQKFKGKVTLTADKSSSTAYMQLSSLASEDSAVYYCARRDYGAWFAYWGQGTLVTVSA
VL: DIKVTQSPSSMYASLGERVTITCKASQDINSYLSWFQQKPGKSPKTLIYRANRLVDGVPSRFSGSGSGQDYSLTISSLDYEDMGIYYCLQYDEFPYTFGGGTKLEIK
B5: 20E4 parental anti-VISTA antibody (VH0/VL0) (antibody, V domains shown)
VH: QVQLQQSGAELMKPGASVKISCKATGYTFSSSWVEWVRQRPGHGLEWIGEIFPGSGSTHYNEKFKGKATFTADTSSNTAYLQLSSLTSDDSAVYYCARRPPGWFFDVWGAGTTVTVSS
VL: DIVMTQSHKFMSTSVGDRVSITCKASQDVSTDVAWYQQKPGQSPKLLIYSASYRYTGVPDRFTGSGSGTDFTFTISSVQAEDLAVYYCQQHYSTPWTFGGGTKLEIK
B6: 20E4-VH1/VL1 (antibody, V domains shown)
VH: QVQLVQSGAEVKKPGASVKVSCKASGYTFSSSWVEWVRQAPGQGLEWMGEIFPGSGSTHYNEKFKGRVTMTRDTSISTAYMELSRLRSDDTAVYYCARRPPGWFFDVWGQGTTVTVSS
VL: DIQMTQSPSSLSASVGDRVTITCKASQDVSTDVAWYQQKPGKAPKLLIYSASYRYTGVPSRFSGSGSGTDFTLTISSLQPEDFATYYCQQHYSTPWTFGGGTKVEIK
B7: 20E4-VH3/VL3 (antibody, V domains shown)
VH: B6 VH with K12M, V20I, S25T, A40R, M48I, R67K, V68A, R72A, Q110A
VL: B6 VL with Q3V, L73F, L78V, F83L, T85V, V104L
B8: 20E4-VH4/VL4 (antibody, V domains shown)
VH: B6 VH with S30T, I76T, A79V, R85S, D89E, T113M
VL: DIVMTQSPDSLAVSLGERATINCKASQDVSTDVAWYQQKPGQPPKLLIYSASYRYTGVPDRFSGSGSGTDFTLTISSLQAEDVAVYYCQQHYSTPWTFGGGTKVEIK
B9: 9F9 humanized anti-VISTA antibody VH15/VL15 (antibody, V domains shown)
VH: QVQLVQSGAEVMKPGASVKLSCKASGYTFTGYWMQWVKQRPGQGLEWIGAIYPGDGDTRYSQKFKGKATMTADTSISTAYMELSRLRSDDSAVYYCARRDYGAWFAYWGAGTTVTVSS
VL: DIVMTQSPSSLSASVGERVTITCKASQDINSYLSWFQQKPGKAPKTLIYRANRLVDGVPSRFSGSGSGTDFTFTISSVQPEDLAIYYCLQYDEFPYTFGGGTKLEIK
B10: 9F9 humanized anti-VISTA antibody VH14/VL15 (antibody, V domains shown)
VH: B9 VH with L20I, K38R, S91T
VL: B9 VL

Biological target: T1, mouse VISTA recombinant protein (Sino …)
Test: Octet (BLI)

Kd	Binder
607 nM	B1
866 nM	B2
336 nM	B3
5.03 nM	B4

Biological target: T2, Human VISTA recombinant protein (Sino Biological Inc., Cat. #13482-H08H), biotinylated (UniProt Q9H7M9 33-194, biotinylated using EZ-LINK NHS-PEG4 biotin)
Test: Octet BLI

T2 sequence (Q9H7M9 33-194): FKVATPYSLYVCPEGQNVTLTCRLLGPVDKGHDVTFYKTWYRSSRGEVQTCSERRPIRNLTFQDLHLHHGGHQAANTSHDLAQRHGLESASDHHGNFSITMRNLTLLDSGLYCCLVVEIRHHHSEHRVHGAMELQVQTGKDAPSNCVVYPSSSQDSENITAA

Kd	Binder
4.37 nM	B5
3.54 nM	B6
3.09 nM	B7
6.22 nM	B8

Biological target: T2, Human VISTA recombinant protein (Sino …)
Test: Octet BLI
Remark: another data set of the same source

Kd	Binder
37.7 nM	B1
56.7 nM	B2
36.6 nM	B3
8.65 nM	B4

Biological target: T2, Human VISTA recombinant protein (Sino …)
Test: Octet BLI
Remark: another data set of the same source

Kd	Binder
26.6 nM	B1
9.45 nM	B4
24.4 nM	B9
20.3 nM	B10

Biological target: T1, mouse VISTA recombinant protein (Sino …)
Test: Octet (BLI)
Remark: another data set of the same source

Kd	Binder
23.9 nM	B1
12.2 nM	B4
20.8 nM	B9
17.5 nM	B10
